Measurements: paper PMC4746669, “Attenuation of ligand-induced activation of angiotensin II type 1 receptor signaling by the type 2 receptor via protein kinase C” (Scientific Reports, 2016)

Tests used:
[1] = biological target: T1, FLAG-AT2R-CFP (angiotensin II type 2 receptor) (human, UniProt P50052 1-363); experiment: co-IP; 293T cells, with or without AII (Suppl. Fig. S3); details not shown; details: partners not purified
T1 construct: Human angiotensin II type 2 receptor (AT2R); cDNA by RT-PCR from human umbilical vein endothelial cells; printed primers run from the codon after the initial methionine to the last codon; FLAG tag inserted after the initial methionine; subcloned EcoRI-NotI into pCXN2-CFPC; also called CFP-tagged AT2R; source: HeLa cells, transfected (FuGENE HD), in lysate or in living cells; not shown: FLAG, …
T1 sequence (looked up): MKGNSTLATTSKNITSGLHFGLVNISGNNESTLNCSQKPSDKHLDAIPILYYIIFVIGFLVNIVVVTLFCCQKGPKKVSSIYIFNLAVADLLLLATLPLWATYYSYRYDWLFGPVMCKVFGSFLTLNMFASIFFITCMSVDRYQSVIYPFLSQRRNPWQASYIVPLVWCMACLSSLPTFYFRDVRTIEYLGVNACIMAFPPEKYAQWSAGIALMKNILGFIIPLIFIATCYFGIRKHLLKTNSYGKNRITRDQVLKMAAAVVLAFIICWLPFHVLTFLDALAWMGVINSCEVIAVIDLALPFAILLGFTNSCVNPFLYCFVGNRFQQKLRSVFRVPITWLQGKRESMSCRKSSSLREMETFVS

[2] = biological target: T1, FLAG-AT2R-CFP (angiotensin II type 2 …); experiment: co-IP; HeLa cells co-transfected with HA-AT1R-YFP and Flag-AT2R-CFP, serum starved, with or without losartan or PD123319 pre-treatment and AII stimulation; NP-40 lysis buffer (10 mM Tris-HCl pH 7.4, 150 mM NaCl, 5 mM EDTA, 0.5% NP-40, 10% glycerol); anti-FLAG antibody with protein A-Sepharose; blot with anti-HA; details: partners not purified

B1: HA-AT1R-YFP (angiotensin II type 1 receptor) (receptor, human, UniProt P30556 1-359, looked up)
chain: MILNSSTEDGIKRIQDDCPKAGRHNYIFVMIPTLYSIIFVVGIFGNSLVVIVIYFYMKLKTVASVFLLNLALADLCFLLTLPLWAVYTAMEYRWPFGNYLCKIASASVSFNLYASVFLLTCLSIDRYLAIVHPMKSRLRRTMLVAKVTCIIIWLLAGLASLPAIIHRNVFFIENTNITVCAFHYESQNSTLPIGLGLTKNILGFLFPFLIILTSYTLIWKALKKAYEIQKNKPRNDDIFKIIMAIVLFFFFSWIPHQIFTFLDVLIQLGIIRDCRIADIVDTAMPITICIAYFNNCLNPLFYGFLGKKFKRYFLQLLKYIPPKAKSHSNLSTKMSTLSYRPSDNVSSSTKKPAPCFEVE
notes: Human angiotensin II type 1 receptor (AT1R); cDNA by RT-PCR from human umbilical vein endothelial cells; printed primers run from the codon after the initial methionine to the last codon; HA tag inserted after the initial methionine; subcloned EcoRI-NotI into pCXN2-YFPC; The reverse primer also encodes a stretch behind the NotI site that is lost on subcloning EcoRI-NotI into pCXN2-YFPC; also …
[1]
  fold enhancement of the association by AII treatment (against no AII): 2.4 fold
[2]
  fold enhancement of the association by AII treatment (against no AII): 1.6 fold
